Measured values reported in US20240417436A1.
Bridges are numbered along the chain shown (N, C = ends). Primed or numbered codes have the meaning given here. [ ]: non-standard residue; d: D form. Yn3(5) = tyrosine residue modified with an azide-capped PEG9 group (O-(PEG9-azido)-tyrosine); Ygp(5) = O-(8x polyethylene glycol-amino)-tyrosine (Tyr-PEG8-amine); Ygp = O-(8x polyethylene glycol-amino)-tyrosine; Yn3 = O-(9x polyethylene glycol-azido)-tyrosine; PEG9′ = polyethylene glycol spacer of 9 units; 4x polyethylene glycol = not defined here; hSer = N[C@@H](CCO)C(=O)O; Nle = CCCC[C@H](N)C(=O)O

Assays:
[1] = biological target: IL-2 receptor βγ complex (CD122/CD132) on HEK-Blue IL-2Rβγ reporter cells (UniProt P14784); assay: cell-based or functional assay
IL-2 receptor βγ complex (CD122/CD132) on HEK-Blue IL-2Rβγ reporter cells, sequence (P14784 27-551 limits assumed, chain 1 of 2): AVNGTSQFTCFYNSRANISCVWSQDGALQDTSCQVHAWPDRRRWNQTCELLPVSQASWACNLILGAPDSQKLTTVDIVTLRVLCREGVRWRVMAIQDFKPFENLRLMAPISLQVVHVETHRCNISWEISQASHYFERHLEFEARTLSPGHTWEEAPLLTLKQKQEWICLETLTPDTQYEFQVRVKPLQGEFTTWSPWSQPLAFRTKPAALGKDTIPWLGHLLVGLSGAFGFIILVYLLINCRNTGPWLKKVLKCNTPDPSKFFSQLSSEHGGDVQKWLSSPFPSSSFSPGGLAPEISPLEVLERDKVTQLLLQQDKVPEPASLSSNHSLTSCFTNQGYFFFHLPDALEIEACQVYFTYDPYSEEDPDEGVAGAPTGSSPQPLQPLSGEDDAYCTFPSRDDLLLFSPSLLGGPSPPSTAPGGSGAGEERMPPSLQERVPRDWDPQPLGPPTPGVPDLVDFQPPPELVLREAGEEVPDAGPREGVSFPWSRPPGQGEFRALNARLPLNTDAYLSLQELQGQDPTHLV
IL-2 receptor βγ complex (CD122/CD132) on HEK-Blue IL-2Rβγ reporter cells, sequence (P31785 23-369 limits assumed, chain 2 of 2, further chain): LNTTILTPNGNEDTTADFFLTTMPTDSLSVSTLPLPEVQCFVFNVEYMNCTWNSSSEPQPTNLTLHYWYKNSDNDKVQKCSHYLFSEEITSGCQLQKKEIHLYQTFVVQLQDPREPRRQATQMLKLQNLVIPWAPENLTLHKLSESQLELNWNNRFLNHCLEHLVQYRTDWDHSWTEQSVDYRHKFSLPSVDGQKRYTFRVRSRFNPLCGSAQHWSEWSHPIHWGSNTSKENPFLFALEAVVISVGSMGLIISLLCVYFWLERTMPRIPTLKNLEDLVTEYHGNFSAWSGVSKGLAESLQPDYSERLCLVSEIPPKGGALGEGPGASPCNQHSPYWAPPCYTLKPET

[2] = biological target: IL-2 receptor βγ complex on human cells (pan T cells, PBMC NK cells, NK92 PD1+ cells) (human) (UniProt P14784); assay: cell-based or functional assay
IL-2 receptor βγ complex on human cells (pan T cells, PBMC NK cells, NK92 PD1+ cells) (human), sequence (P14784 27-551, chain 1 of 2): as the sequence (P14784 27-551 limits assumed, chain 1 of 2) above
IL-2 receptor βγ complex on human cells (pan T cells, PBMC NK cells, NK92 PD1+ cells) (human), sequence (P31785 23-369, chain 2 of 2, further chain): as the sequence (P31785 23-369 limits assumed, chain 2 of 2, further chain) above

Row | Binder | Average EC50, HEK-Blue IL-2R (CD122+, CD132+) reporter assay [1] | Average EC50, pSTAT5 assay in NK cells [2]
1 | CMP-154 (ligand, linker N-35 via 9x polyethylene glycol) PLGLAGAPTSSSTKKTQLQLEHLLLDLQ[Nle]ILNGIENYKNPKLTR[Nle]L[hSer][Yn3]KF[Ygp][Nle]PKKATELKHLQCLEEELKPLEEVL[hSer]LAQSKNFHLRPRDLISNINVIVLELKGSETTF[hSer]CEYADETATIVEFLNRWITFSQSIISTLT | 0.106 nM | –
2 | CMP-318 (ligand, lactam N-32) SGRVANLVGAPTSSSTKKTQLQLEHLLLDLQEILNGINNYKNPKLTR[Nle]L[hSer][Yn3]KF[Ygp][Nle]PKKATELKHLQCLEEELKPLEEVL[hSer]LAQSKNFHLRPRDLISNINVIVLELKGSETTF[hSer]CEYADETATIVEFLNRWITFSQSIISTLT | 3.37 nM | 37.4 nM
3 | CMP-302 (ligand, lactam N-30) GPLGLAGAPTSSSTKKTQLQLEHLLLDLQEILNGINNYKNPKLTR[Nle]L[hSer][Yn3]KF[Ygp][Nle]PKKATELKHLQCLEEELKPLEEVL[hSer]LAQSKNFHLRPRDLISNINVIVLELKGSETTF[hSer]CEYADETATIVEFLNRWITFSQSIISTLT | 0.436 nM | –
4 | CMP-152 (ligand, linker N-38 via 1,5‑pentanedioic acid‑9x polyethylene glycol linker) PLGLAGAPTSSSTKKTQLQLEHLLLDLQ[Nle]ILNGINNYKNPKLTR[Nle]L[hSer][Yn3]KF[Ygp][Nle]PKKATELKHLQCLEEELKPLEEVL[hSer]LAQSKNFHLRPRDLISNINVIVLELKGSETTF[hSer]CEYADETATIVEFLNRWITFSQSIISTLT | 0.0597 nM | –
5 | CMP-304 (ligand, bridge N-29 via PEG9′) PLGLAGAPTSSSTKKTQLQLEHLLLDLQEILNGINNYKNPKLTR[Nle]L[hSer][Yn3]KF[Ygp][Nle]PKKATELKHLQCLEEELKPLEEVL[hSer]LAQSKNFHLRPRDLISNINVIVLELKGSETTF[hSer]CEYADETATIVEFLNRWITFSQSIISTLT | 0.34 nM | –
6 | CMP-159 (ligand, linker N-28 via 4x polyethylene glycol; reading uncertain) PLGLAGAPTSSSTKKTQLQLEHLLLDLE[Nle]ILNGINNYKNPKLTR[Nle]L[hSer][Yn3]KF[Ygp][Nle]PKKATELKHLQCLEEELKPLEEVL[hSer]LAQSKNFHLRPRDLISNINVIVLELKGSETTF[hSer]CEYADETATIVEFLNRWITFSQSIISTLT | 0.192 nM | –
7 | CMP-318, MMP2 cleaved molecule (ligand, not fully specified (bridges)) SGRVANLVGAPTSSSTKKTQLQLEHLLLDLQEILNGINNYKNPKLTR[Nle]L[hSer][Yn3]KF[Ygp][Nle]PKKATELKHLQCLEEELKPLEEVL[hSer]LAQSKNFHLRPRDLISNINVIVLELKGSETTF[hSer]CEYADETATIVEFLNRWITFSQSIISTLT | 0.0259 nM | 0.388 nM
8 | CMP-303 (ligand, linker (positions not given here) via 4x polyethylene glycol; not fully specified (bridges); reading uncertain; also: ring may run through the N-terminus of residue 1, not given here) PLGLAGAPTSSSTKKTQLQLEHLLLDLQEILNGINNYKNPKLTR[Nle]L[hSer][Yn3]KF[Ygp][Nle]PKKATELKHLQCLEEELKPLEEVL[hSer]LAQSKNFHLRPRDLISNINVIVLELKGSETTF[hSer]CEYADETATIVEFLNRWITFSQSIISTLT | 0.521 nM | –
9 | CMP-161 (ligand, bridge N-32; not fully specified (bridges)) PLGLAGAPTSSSTKKTQLQLEHLLLDLQ[Nle]ILEGINNYKNPKLTR[Nle]L[hSer][Yn3]KF[Ygp][Nle]PKKATELKHLQCLEEELKPLEEVL[hSer]LAQSKNFHLRPRDLISNINVIVLELKGSETTF[hSer]CEYADETATIVEFLNRWITFSQSIISTLT | 0.168 nM | –

The remaining lines, values ahead:

Row | Average EC50, HEK-Blue IL-2R (CD122+, CD132+) reporter assay [1] | Average EC50, pSTAT5 assay in NK cells [2] | Binder
10 | 4.2 nM | 55.1 nM | CMP-321 (ligand, lactam N-32) SGRVQPLVDAPTSSSTKKTQLQLEHLLLDLQEILNGINNYKNPKLTR[Nle]L[hSer][Yn3(5)]KF[Ygp(5)][Nle]PKKATELKHLQCLEEELKPLEEVL[hSer]LAQSKNFHLRPRDLISNINVIVLELKGSETTF[hSer]CEYADETATIVEFLNRWITFSQSIISTLT
11 | 0.181 nM | 2.94 nM | CMP-321, MMP2 cleaved molecule (ligand, lactam N-32; also: treated with MMP2 (cleavage site not given here)) SGRVQPLVDAPTSSSTKKTQLQLEHLLLDLQEILNGINNYKNPKLTR[Nle]L[hSer][Yn3(5)]KF[Ygp(5)][Nle]PKKATELKHLQCLEEELKPLEEVL[hSer]LAQSKNFHLRPRDLISNINVIVLELKGSETTF[hSer]CEYADETATIVEFLNRWITFSQSIISTLT
12 | 10.8 nM | 15.7 nM | CMP-320, Matriptase cleaved molecule (ligand, lactam N-34; also: treated with matriptase (cleavage site not given here)) SGRVAPQPLVDAPTSSSTKKTQLQLEHLLLDLQEILNGINNYKNPKLTR[Nle]L[hSer][Yn3(5)]KF[Ygp(5)][Nle]PKKATELKHLQCLEEELKPLEEVL[hSer]LAQSKNFHLRPRDLISNINVIVLELKGSETTF[hSer]CEYADETATIVEFLNRWITFSQSIISTLT
13 | 0.049 nM | 0.713 nM | CMP-319, MMP2 cleaved molecule (ligand, lactam N-33; also: treated with MMP2 (cleavage site not given here)) RGRRVANLVGAPTSSSTKKTQLQLEHLLLDLQEILNGINNYKNPKLTR[Nle]L[hSer][Yn3(5)]KF[Ygp(5)][Nle]PKKATELKHLQCLEEELKPLEEVL[hSer]LAQSKNFHLRPRDLISNINVIVLELKGSETTF[hSer]CEYADETATIVEFLNRWITFSQSIISTLT
14 | 2.47 nM | 33.7 nM | CMP-318, Matriptase cleaved molecule (ligand, lactam N-32; also: treated with matriptase, cleavage site not given here) SGRVANLVGAPTSSSTKKTQLQLEHLLLDLQEILNGINNYKNPKLTR[Nle]L[hSer][Yn3(5)]KF[Ygp(5)][Nle]PKKATELKHLQCLEEELKPLEEVL[hSer]LAQSKNFHLRPRDLISNINVIVLELKGSETTF[hSer]CEYADETATIVEFLNRWITFSQSIISTLT
15 | 1.05 nM | 7.72 nM | CMP-319 (ligand, lactam N-33) RGRRVANLVGAPTSSSTKKTQLQLEHLLLDLQEILNGINNYKNPKLTR[Nle]L[hSer][Yn3(5)]KF[Ygp(5)][Nle]PKKATELKHLQCLEEELKPLEEVL[hSer]LAQSKNFHLRPRDLISNINVIVLELKGSETTF[hSer]CEYADETATIVEFLNRWITFSQSIISTLT
16 | 0.775 nM | 13.2 nM | CMP-320 (ligand, lactam N-34) SGRVAPQPLVDAPTSSSTKKTQLQLEHLLLDLQEILNGINNYKNPKLTR[Nle]L[hSer][Yn3(5)]KF[Ygp(5)][Nle]PKKATELKHLQCLEEELKPLEEVL[hSer]LAQSKNFHLRPRDLISNINVIVLELKGSETTF[hSer]CEYADETATIVEFLNRWITFSQSIISTLT
17 | 0.0507 nM | 0.804 nM | CMP-319, Matriptase cleaved molecule (ligand, lactam N-33; also: treated with matriptase (cleavage site not given here)) RGRRVANLVGAPTSSSTKKTQLQLEHLLLDLQEILNGINNYKNPKLTR[Nle]L[hSer][Yn3(5)]KF[Ygp(5)][Nle]PKKATELKHLQCLEEELKPLEEVL[hSer]LAQSKNFHLRPRDLISNINVIVLELKGSETTF[hSer]CEYADETATIVEFLNRWITFSQSIISTLT
18 | 4.22 nM | 65.2 nM | CMP-321, Matriptase cleaved molecule (ligand, lactam N-32; also: treated with matriptase (cleavage site not given here)) SGRVQPLVDAPTSSSTKKTQLQLEHLLLDLQEILNGINNYKNPKLTR[Nle]L[hSer][Yn3(5)]KF[Ygp(5)][Nle]PKKATELKHLQCLEEELKPLEEVL[hSer]LAQSKNFHLRPRDLISNINVIVLELKGSETTF[hSer]CEYADETATIVEFLNRWITFSQSIISTLT
19 | 0.0392 nM | 0.571 nM | CMP-320, MMP2 cleaved molecule (ligand, lactam N-34; also: treated with MMP2 (cleavage site not given here)) SGRVAPQPLVDAPTSSSTKKTQLQLEHLLLDLQEILNGINNYKNPKLTR[Nle]L[hSer][Yn3(5)]KF[Ygp(5)][Nle]PKKATELKHLQCLEEELKPLEEVL[hSer]LAQSKNFHLRPRDLISNINVIVLELKGSETTF[hSer]CEYADETATIVEFLNRWITFSQSIISTLT
